Laboratory results published in the supplement of paper PMC10065799, “High-throughput profiling of sequence recognition by tyrosine kinases and SH2 domains using bacterial peptide display” (eLife, 2023).

How the values were obtained:
SHP2-C SH2 = assay: SH2 binding enrichment of the phosphorylated peptide, bacterial display (enrichment ratio); higher = better substrate or ligand; peptides without Tyr show the background
Grb2 SH2 = Grb2 SH2 (UniProt P62993); assay: as above
c-Src SH2 = assay: as above
Jak2 = Jak2 (UniProt O60674); assay: phosphorylation enrichment, bacterial display (enrichment ratio); higher = better substrate or ligand; peptides without Tyr show the background
MERTK = MERTK (UniProt Q12866); assay: as above
Hck = Hck (UniProt P08631); assay: as above
EPHB1 = EPHB1 (UniProt P54762); assay: as above
EPHB2 = EPHB2 (UniProt P29323); assay: as above
AncSZ = assay: as above
Fer (mouse) = assay: as above
c-Abl (mouse) = assay: as above
FGFR3 = FGFR3 (UniProt P22607); assay: as above
Fes = Fes (UniProt P07332); assay: as above
FGFR1 = FGFR1 (UniProt P11362); assay: as above
c-Src = assay: as above
Fyn = Fyn (UniProt P06241); assay: as above
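Wherever SH2 binding enrichment of the phosphorylated peptide, bacterial display is given: peptide library displayed on the E. coli surface as eCPX fusions, selected cells deep-sequenced, score is each peptide's frequency after selection divided by its frequency in the input.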
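Wherever phosphorylation enrichment, bacterial display is given: 11-residue human phosphosite peptides and single-mutation variants displayed on the E. coli surface, counted by deep sequencing, each peptide's frequency after selection divided by its frequency in the unselected input library; frequency after pTyr selection over input frequency; kinase dosed for 20-30% of maximal phosphorylation in three min.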

Sequence of Jak2 (O60674 whole entry, looked up): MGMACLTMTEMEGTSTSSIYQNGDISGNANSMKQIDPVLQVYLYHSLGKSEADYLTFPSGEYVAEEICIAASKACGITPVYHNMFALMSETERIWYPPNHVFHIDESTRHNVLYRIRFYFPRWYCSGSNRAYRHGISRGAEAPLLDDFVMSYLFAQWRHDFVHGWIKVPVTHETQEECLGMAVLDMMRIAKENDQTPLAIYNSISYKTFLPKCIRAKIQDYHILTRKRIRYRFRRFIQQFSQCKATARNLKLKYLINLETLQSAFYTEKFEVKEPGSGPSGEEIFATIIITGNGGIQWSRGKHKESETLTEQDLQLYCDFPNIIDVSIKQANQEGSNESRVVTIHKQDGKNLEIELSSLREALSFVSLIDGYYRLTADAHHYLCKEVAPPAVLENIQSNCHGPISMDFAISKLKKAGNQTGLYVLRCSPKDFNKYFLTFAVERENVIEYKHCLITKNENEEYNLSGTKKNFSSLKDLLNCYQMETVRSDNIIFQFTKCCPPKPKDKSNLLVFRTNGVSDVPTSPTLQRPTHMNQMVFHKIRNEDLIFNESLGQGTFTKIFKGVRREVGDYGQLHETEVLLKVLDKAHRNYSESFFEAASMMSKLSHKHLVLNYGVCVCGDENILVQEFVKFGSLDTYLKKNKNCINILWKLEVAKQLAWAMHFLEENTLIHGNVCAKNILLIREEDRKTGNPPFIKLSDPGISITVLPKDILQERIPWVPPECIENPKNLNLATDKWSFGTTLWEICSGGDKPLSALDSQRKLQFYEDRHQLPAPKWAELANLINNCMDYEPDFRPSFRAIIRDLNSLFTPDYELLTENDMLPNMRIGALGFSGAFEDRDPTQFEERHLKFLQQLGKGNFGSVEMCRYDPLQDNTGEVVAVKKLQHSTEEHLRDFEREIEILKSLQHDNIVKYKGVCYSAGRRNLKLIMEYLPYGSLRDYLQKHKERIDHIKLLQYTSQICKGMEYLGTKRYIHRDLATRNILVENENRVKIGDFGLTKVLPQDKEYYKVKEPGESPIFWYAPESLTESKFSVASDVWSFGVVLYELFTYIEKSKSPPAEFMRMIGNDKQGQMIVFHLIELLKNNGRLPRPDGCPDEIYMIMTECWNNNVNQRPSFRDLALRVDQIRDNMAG
Sequence of Hck (P08631 whole entry, looked up): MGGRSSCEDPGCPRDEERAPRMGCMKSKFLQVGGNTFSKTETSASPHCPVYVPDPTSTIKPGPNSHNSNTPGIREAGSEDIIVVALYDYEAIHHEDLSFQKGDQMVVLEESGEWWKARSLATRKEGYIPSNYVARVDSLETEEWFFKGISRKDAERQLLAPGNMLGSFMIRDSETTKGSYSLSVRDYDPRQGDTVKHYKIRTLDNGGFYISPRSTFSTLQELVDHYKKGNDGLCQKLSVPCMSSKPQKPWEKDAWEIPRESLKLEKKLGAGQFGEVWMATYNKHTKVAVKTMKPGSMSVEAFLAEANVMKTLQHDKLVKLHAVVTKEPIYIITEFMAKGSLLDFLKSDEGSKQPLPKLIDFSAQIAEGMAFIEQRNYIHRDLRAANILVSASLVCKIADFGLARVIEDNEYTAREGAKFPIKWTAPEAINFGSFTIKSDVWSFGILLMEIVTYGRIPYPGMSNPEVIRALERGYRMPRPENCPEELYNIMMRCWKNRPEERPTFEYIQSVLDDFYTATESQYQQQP
Sequence of FGFR1 (P11362 whole entry, looked up): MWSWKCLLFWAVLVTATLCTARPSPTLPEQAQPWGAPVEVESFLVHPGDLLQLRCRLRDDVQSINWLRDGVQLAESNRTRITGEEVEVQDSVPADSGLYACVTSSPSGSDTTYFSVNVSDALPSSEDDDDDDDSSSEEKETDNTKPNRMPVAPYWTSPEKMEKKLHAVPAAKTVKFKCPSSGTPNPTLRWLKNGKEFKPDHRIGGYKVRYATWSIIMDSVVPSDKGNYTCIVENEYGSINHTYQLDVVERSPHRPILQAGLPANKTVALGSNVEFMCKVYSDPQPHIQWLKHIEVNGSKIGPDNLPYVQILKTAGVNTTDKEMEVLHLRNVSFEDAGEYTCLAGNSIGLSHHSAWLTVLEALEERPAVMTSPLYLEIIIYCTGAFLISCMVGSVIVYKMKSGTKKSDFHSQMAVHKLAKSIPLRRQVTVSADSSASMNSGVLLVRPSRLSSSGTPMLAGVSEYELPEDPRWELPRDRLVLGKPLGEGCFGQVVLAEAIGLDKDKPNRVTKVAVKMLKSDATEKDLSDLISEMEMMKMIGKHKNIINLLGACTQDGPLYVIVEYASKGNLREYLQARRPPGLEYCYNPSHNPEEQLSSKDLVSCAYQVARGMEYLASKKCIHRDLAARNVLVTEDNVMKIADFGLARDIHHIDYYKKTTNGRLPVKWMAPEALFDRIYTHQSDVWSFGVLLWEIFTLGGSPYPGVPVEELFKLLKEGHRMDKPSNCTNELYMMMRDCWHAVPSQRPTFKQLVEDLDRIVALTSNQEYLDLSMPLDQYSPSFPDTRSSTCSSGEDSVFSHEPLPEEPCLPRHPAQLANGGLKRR
Sequence of Fes (P07332 whole entry, looked up): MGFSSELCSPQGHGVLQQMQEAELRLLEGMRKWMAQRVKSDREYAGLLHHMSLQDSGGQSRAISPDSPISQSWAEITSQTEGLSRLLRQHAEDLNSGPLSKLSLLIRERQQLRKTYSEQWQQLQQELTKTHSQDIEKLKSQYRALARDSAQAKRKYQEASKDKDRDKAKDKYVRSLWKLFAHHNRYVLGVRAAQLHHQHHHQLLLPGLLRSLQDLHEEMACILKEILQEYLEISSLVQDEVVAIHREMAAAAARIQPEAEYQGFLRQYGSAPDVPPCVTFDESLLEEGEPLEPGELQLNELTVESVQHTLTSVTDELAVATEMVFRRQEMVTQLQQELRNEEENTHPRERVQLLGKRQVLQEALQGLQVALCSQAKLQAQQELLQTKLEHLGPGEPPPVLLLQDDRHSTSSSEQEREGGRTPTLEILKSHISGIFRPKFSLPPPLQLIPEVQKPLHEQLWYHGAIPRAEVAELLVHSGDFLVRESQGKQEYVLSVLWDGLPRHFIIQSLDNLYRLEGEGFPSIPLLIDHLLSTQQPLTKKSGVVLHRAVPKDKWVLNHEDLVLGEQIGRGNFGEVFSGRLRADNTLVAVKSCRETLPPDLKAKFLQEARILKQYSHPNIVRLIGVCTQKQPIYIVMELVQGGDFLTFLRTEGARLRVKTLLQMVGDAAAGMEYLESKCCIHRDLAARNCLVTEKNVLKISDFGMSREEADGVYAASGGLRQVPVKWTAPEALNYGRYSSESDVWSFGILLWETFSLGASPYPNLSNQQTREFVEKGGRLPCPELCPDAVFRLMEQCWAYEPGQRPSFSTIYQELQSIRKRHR
Sequence of MERTK (Q12866 whole entry, looked up): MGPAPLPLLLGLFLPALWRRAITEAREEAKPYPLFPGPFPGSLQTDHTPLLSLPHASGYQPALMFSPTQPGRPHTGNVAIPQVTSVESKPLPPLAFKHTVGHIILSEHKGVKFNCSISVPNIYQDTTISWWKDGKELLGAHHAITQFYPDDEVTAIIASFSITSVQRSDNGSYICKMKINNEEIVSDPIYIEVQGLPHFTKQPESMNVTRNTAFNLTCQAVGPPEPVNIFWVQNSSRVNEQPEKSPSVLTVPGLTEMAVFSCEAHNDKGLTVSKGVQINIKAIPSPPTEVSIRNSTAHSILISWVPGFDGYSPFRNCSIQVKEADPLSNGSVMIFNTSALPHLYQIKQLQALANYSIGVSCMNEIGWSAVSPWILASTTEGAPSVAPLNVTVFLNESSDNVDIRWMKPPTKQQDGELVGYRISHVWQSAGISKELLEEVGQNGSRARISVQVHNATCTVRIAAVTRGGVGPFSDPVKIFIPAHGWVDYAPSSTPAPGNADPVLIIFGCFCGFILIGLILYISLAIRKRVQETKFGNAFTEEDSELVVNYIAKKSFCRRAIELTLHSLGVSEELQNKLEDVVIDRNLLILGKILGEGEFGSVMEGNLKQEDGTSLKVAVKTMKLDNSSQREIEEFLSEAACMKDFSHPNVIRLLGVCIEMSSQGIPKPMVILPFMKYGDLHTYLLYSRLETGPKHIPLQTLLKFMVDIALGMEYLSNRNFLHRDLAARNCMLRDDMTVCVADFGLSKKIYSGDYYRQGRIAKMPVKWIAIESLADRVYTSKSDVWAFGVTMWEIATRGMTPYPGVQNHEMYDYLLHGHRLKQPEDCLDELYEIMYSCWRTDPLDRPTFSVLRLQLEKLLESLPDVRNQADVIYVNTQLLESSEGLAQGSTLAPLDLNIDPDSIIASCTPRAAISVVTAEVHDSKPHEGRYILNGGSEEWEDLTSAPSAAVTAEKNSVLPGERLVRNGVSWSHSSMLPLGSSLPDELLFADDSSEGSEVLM
Sequence of Fyn (P06241 whole entry, looked up, the tested form may be a part): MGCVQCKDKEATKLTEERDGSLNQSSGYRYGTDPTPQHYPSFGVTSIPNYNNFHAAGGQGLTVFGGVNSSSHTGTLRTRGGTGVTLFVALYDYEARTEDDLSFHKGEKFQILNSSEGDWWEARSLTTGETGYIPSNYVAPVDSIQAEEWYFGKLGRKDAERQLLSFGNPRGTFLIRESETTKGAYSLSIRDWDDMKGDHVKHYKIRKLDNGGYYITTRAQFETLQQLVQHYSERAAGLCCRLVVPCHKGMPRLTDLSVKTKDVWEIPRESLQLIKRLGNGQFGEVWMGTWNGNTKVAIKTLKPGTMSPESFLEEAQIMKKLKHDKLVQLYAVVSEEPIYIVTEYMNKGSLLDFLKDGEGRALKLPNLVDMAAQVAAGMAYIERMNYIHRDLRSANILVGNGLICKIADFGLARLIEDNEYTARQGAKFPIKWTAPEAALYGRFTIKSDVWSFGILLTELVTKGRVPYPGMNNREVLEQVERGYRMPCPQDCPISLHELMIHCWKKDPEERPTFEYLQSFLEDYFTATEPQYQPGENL
Sequence of Grb2 SH2 (P62993 whole entry, looked up): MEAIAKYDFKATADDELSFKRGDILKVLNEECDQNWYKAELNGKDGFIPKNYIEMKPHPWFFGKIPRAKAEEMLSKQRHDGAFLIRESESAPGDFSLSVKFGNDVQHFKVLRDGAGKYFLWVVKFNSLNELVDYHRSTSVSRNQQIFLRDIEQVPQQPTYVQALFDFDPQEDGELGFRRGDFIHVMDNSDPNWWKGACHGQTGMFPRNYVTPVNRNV

Sequence | SH2 binding enrichment (SHP2-C SH2) | SH2 binding enrichment (Grb2 SH2) | SH2 binding enrichment (c-Src SH2) | phosphorylation enrichment (Jak2) | phosphorylation enrichment (MERTK) | phosphorylation enrichment (Hck) | phosphorylation enrichment (EPHB1) | phosphorylation enrichment (EPHB2) | phosphorylation enrichment (AncSZ) | phosphorylation enrichment (Fer (mouse)) | phosphorylation enrichment (c-Abl (mouse)) | phosphorylation enrichment (FGFR3) | phosphorylation enrichment (Fes) | phosphorylation enrichment (FGFR1) | phosphorylation enrichment (c-Src) | phosphorylation enrichment (Fyn)
SEQNNYSRVAN [CWC22_Y797_R794Q] | 3.97 | 0.784 | 1.66 | 0.535 | 0.4 | 0.458 | 1.14 | 0.878 | 0.705 | 0.497 | 0.447 | 0.437 | 0.534 | 0.43 | 0.35 | 0.458
SETSRYLSELF [KCNJ3_Y67_D70E] | 0.774 | 0.883 | 0.588 | 0.783 | 0.382 | 0.464 | 0.467 | 0.498 | 1.07 | 0.376 | 0.535 | 0.537 | 0.882 | 0.509 | 0.346 | 0.397
SFCFRYCCAAR [SUMF1_Y344_R345C_YF] | 0.764 | 1.02 | 0.755 | 1.02 | 0.445 | 0.436 | 0.659 | 0.611 | 1.25 | 0.517 | 0.7 | 0.723 | 1.23 | 0.504 | 0.397 | 0.487
SFPSTYRYERG [INPPL1_Y661_P659S] | 0.728 | 0.987 | 0.633 | 0.767 | 0.455 | 0.392 | 0.453 | 0.397 | 0.484 | 0.418 | 0.52 | 0.449 | 0.813 | 0.39 | 0.463 | 0.439
SFTDPYAQPPL [KMT2D_Y2378_YF] | 0.656 | 0.651 | 0.534 | 0.722 | 0.468 | 0.502 | 0.475 | 0.527 | 0.787 | 0.411 | 0.502 | 0.607 | 0.832 | 0.487 | 0.54 | 0.531
SGRSGYCLGTR [SCO1_Y60_P58S] | 0.752 | 1.19 | 1.01 | 0.617 | 0.55 | 0.348 | 0.309 | 0.535 | 0.586 | 0.399 | 0.514 | 0.432 | 0.834 | 0.518 | 0.424 | 0.341
SGSFRYGSSCE [SELE_Y390] | 0.747 | 0.748 | 0.528 | 0.644 | 0.388 | 0.47 | 0.412 | 0.456 | 0.642 | 0.353 | 0.486 | 0.554 | 0.801 | 0.393 | 0.466 | 0.45
SHLLRYLSWTV [CLCNKB_Y93] | 0.724 | 0.9 | 0.553 | 1.06 | 0.37 | 0.544 | 0.553 | 0.528 | 1.24 | 0.478 | 0.781 | 0.7 | 1.23 | 0.684 | 0.368 | 0.468
SHPSSYTTHPQ [NIPBL_Y195] | 0.723 | 0.728 | 0.477 | 0.492 | 0.463 | 0.46 | 0.362 | 0.384 | 0.412 | 0.467 | 0.417 | 0.404 | 0.82 | 0.459 | 0.478 | 0.441
SIFKDYFRFNF [PLA2G2D_Y85_YF] | 1.62 | 1.77 | 1.27 | 2.8 | 0.579 | 0.481 | 0.523 | 0.537 | 1.18 | 0.428 | 0.821 | 2.58 | 1.19 | 3.99 | 0.643 | 0.495
SIKHKYVTALY [KCNH2_Y611_D609H] | 0.63 | 0.761 | 0.484 | 0.528 | 0.407 | 0.524 | 0.399 | 0.4 | 0.537 | 0.398 | 0.444 | 0.594 | 0.582 | 0.45 | 0.398 | 0.43
SIKNKYVTALF [KCNH2_Y611_D609N_YF] | 1.06 | 0.994 | 0.671 | 0.566 | 0.41 | 0.465 | 0.394 | 0.459 | 0.672 | 0.371 | 0.487 | 0.507 | 0.653 | 0.417 | 0.41 | 0.402
SKDQIYPMKLK [RANBP17_Y823] | 0.764 | 0.804 | 0.446 | 0.493 | 0.355 | 0.361 | 0.29 | 0.458 | 0.451 | 0.336 | 0.449 | 0.437 | 0.533 | 0.386 | 0.572 | 0.417
SKNSKYNAGST [PSEN1_Y315_E318G] | 0.557 | 0.581 | 0.349 | 0.608 | 0.536 | 0.442 | 0.307 | 0.654 | 0.535 | 0.436 | 0.677 | 0.439 | 0.776 | 0.358 | 0.737 | 0.59
SLDLSYYHTSS [EMD_Y181_P183H] | 0.692 | 0.746 | 0.867 | 1.71 | 0.578 | 0.554 | 0.765 | 0.58 | 1.05 | 0.453 | 0.603 | 1.19 | 0.951 | 1.53 | 0.524 | 0.543
SLDLSYYPTSS [EMD_Y181] | 0.819 | 0.921 | 1.27 | 4.37 | 0.661 | 0.617 | 0.614 | 0.566 | 1.42 | 0.507 | 0.803 | 2.18 | 0.947 | 2.62 | 0.583 | 0.515
